Literature values, collected in patent US6100293A, “Tetracyclic triterpene derivatives with immunosuppressant activity” (Merck & Co., Inc., priority 1998, dated 2000).

Biological target: T1, Kv 1.3 channels (Homo sapiens, UniProt P22001)
T1 construct: expressed in transfected cells; host or cells: CHO cells
Settings: reference peptide used at saturating concentration to set the efflux window; read-out: IC50 (blocker of Kv 1.3 channels)

T1 sequence (P22001 whole entry): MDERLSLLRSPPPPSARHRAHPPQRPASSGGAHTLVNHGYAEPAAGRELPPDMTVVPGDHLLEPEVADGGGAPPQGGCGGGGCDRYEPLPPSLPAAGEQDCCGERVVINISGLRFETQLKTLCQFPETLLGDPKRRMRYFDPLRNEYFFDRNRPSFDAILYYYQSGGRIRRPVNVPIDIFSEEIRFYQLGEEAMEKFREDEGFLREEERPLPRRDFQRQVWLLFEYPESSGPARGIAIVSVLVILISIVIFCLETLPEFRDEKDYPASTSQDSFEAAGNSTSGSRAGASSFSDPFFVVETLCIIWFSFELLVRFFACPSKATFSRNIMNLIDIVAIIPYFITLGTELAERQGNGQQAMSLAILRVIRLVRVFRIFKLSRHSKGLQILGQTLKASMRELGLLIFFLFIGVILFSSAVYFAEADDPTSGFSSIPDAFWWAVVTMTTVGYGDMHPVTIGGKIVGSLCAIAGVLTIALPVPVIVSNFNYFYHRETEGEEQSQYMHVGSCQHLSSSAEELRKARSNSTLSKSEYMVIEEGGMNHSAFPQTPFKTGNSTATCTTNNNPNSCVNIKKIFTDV

For “margatoxin (TIINVKCTSPKQCLPPCKAQFGQSAGAKCMNGKCKCYPH; UniProt P40755 1-39, looked up)”, the IC50 is given as 100 pM.
